These results are taken from US6617427 (THOMAS JEFFERSON UNIVERSITY, dated 2003).

Sequences and labels used below:
T1: LexA-hairy (UniProt P14003 1-337, limits assumed)
T1 construct: not shown: LexA, fusion partner
T1 sequence (looked up): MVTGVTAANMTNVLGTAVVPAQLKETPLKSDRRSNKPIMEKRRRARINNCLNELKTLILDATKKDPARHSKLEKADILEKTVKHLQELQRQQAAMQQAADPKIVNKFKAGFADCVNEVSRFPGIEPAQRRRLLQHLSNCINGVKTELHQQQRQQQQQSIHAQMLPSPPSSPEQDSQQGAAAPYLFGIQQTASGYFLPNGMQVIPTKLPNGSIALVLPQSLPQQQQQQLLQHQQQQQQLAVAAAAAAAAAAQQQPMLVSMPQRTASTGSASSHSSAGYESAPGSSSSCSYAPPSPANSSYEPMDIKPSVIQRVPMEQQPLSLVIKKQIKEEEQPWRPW

T2: LexA-daughterless (UniProt P11420 1-710, limits assumed)
T2 construct: not shown: LexA, fusion partner
T2 sequence (looked up): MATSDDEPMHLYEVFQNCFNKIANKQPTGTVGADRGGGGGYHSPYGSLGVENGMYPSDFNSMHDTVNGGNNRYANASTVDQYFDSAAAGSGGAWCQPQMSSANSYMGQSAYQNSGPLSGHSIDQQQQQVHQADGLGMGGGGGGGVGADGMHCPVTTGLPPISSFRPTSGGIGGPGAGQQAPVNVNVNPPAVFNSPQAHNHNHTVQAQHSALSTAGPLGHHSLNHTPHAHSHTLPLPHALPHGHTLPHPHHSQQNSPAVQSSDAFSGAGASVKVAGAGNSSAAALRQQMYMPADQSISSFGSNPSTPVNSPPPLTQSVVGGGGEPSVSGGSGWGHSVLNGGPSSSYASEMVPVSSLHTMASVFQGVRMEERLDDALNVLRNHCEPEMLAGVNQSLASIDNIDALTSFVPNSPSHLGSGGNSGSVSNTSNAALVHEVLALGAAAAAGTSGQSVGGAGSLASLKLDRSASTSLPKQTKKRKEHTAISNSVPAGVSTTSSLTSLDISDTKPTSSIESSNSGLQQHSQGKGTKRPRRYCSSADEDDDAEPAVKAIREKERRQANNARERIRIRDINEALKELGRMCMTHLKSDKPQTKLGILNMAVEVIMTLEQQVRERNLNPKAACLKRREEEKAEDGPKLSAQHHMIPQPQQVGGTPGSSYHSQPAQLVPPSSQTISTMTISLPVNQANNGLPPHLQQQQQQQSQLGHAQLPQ

T3: LexA-CLN3 (UniProt P13365 1-580, limits assumed)
T3 construct: not shown: LexA, fusion partner
T3 sequence (looked up): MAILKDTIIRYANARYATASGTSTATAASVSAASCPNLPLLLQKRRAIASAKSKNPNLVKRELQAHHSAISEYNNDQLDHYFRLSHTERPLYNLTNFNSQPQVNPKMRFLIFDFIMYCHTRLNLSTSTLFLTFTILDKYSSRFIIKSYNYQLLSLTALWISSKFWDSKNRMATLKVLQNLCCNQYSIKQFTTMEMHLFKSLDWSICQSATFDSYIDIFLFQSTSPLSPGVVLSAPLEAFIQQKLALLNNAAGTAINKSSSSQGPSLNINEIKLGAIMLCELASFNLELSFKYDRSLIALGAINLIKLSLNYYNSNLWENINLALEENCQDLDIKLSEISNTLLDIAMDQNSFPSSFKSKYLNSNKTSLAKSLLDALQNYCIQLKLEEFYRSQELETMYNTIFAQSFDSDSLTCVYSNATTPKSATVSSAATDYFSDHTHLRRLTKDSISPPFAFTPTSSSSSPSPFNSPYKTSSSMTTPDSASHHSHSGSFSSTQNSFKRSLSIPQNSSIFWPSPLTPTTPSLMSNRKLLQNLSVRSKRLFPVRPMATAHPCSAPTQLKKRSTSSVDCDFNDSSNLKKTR

T4: LexA-ftz (UniProt P02835 1-410, limits assumed)
T4 construct: not shown: LexA, fusion partner
T4 sequence (looked up): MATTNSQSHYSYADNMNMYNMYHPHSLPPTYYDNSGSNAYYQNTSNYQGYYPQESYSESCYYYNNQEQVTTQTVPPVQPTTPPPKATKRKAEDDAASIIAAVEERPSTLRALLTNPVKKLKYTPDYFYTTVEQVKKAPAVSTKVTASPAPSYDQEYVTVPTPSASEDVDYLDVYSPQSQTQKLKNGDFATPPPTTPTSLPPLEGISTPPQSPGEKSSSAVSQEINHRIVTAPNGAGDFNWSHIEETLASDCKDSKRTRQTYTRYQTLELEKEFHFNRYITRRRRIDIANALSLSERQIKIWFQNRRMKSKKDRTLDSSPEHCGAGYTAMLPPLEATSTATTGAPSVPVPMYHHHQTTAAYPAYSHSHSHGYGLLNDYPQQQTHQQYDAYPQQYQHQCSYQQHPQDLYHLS

B1: Tvl-1 N-terminal portion (a.a. 1-96) (other)
chain: MEPTQVAENLVPNQQPPVPDLEDPEDTRDESPENSDTVVLSLFPCTPDAVNPEADASASSLQGSFLKHSTTLTNRQRGNEVSALPATLDSLSIHQL
B2: B42-Tvl-1 fusion (Tvl-1 a.a. 81-269 fused to the activation domain B42) (other, not shown: large carriers)
chain: VSALPATLDSLSIHQLAAQGELSQLKDHLRKGACPACTCLSGNNLINKPDERGFTPLIWASAFGEIETVRFLLDWGADPHILAKERESALSLASMGGYTDIVRLLLDRDVDINIYDWNGGTPLLYAVRGNHVKCVEALLARGADLTTEADSGYTPMDLAVALGYRKVQQVMESHILRLFQSTLGPVDPE
notes: Yeast two-hybrid prey; also called acid blob-Tvl-1
B3: LexA-bicoid (other, UniProt P09081 2-160, looked up)
chain: AQPPPDQNFYHHPLPHTHTHPHPHSHPHPHSHPHPHHQHPQLQLPPQFRNPFDLLFDERTGAINYNYIRPYLPNQMPKPDVFPSEELPDSLVMRRPRRTRTTFTSSQIAELEQHFLQGRYLTAPRLADLSAKLALGTAQVKIWFKNRRRRHKIQSDQHK
notes: not shown: LexA, fusion partner

Experiment [1] concerns the target T5, LexA-Raf-1 (human, UniProt P0A7C2 1-202; P04049 1-648, limits assumed).
T5 construct: Yeast two-hybrid bait; also called LexA fusion of Raf-1 (#1)
Description: yeast two-hybrid (data not shown).

For experiment [2], the target named is T1, LexA-hairy. Description: yeast interaction mating, B42 Tvl-1 against LexA fusion (data not shown).
For experiment [3], the target named is T2, LexA-daughterless. The description is as above.
Experiment [4] has as its target T3, LexA-CLN3. The description is as above.
Experiment [5] addresses T6, LexA-DMcdc2 (UniProt P23572 1-297).
T6 construct: not shown: LexA, fusion partner
The description is as above.

Experiment [6] has as its target T4, LexA-ftz. Described as above.
The target in experiment [7] is T7, LexA-SSN6 (UniProt P14922 1-966, limits assumed).
T7 construct: not shown: LexA, fusion partner
T7 sequence (P14922 whole entry, the tested form may be a part): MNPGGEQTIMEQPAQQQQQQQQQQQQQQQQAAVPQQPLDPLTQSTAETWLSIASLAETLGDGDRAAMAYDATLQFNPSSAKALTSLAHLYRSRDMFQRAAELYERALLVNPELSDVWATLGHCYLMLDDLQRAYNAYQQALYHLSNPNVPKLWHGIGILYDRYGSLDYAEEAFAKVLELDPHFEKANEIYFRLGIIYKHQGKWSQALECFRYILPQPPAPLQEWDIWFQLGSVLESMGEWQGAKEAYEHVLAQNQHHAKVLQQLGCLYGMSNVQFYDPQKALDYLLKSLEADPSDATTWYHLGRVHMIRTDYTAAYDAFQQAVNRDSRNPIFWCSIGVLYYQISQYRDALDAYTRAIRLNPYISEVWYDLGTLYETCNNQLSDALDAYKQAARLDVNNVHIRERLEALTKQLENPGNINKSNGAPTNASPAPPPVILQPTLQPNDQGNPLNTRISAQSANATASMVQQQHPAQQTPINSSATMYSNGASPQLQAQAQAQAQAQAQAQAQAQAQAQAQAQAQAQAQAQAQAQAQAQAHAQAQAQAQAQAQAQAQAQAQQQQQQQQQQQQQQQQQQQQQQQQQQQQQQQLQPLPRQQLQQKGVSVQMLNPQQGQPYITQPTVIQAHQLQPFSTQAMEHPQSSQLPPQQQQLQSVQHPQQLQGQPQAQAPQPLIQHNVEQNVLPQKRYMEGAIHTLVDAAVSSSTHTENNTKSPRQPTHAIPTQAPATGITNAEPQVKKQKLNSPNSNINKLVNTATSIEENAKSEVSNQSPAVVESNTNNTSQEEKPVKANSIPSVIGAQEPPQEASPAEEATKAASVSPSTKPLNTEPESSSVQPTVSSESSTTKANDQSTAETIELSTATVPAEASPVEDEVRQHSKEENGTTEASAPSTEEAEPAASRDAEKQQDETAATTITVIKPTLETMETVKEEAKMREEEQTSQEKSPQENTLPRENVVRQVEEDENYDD
The description is as above.

Experiment [8] addresses B2. The experiment is described as above.

T6 sequence (P23572 whole entry, the tested form may be a part): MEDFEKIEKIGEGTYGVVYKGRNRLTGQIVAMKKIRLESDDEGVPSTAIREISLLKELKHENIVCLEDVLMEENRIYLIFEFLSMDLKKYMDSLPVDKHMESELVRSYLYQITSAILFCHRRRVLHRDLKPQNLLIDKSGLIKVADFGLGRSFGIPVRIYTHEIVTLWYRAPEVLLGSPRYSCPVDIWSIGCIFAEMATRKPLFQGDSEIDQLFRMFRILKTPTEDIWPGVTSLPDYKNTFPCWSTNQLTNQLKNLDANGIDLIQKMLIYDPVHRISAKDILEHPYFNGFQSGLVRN

Consider B1, for which, in experiment [1], the binding result is reported as “no binding”.

Consider B2, for which the binding result in experiment [2], in experiment [3], in experiment [4], in experiment [5], in experiment [6] and in experiment [7] was “no binding” in each case.

For B3, the binding result in experiment [8] is recorded as “no binding”.
